Experimental findings from patent US20010046665A1, “Method of identifying the function of a test agent” (priority 2000, published 2001) are described below.

What all share (format): cell-based
Holding throughout (parameters): key: *: up in IL-1α treatment; **: up in OPG treatment, down in thrombopoietin treatment; ***: up in IFNγ treatment; ****: up in IL-6 treatment

For one assay, the system named is MG-63, Osteosarcoma. Briefly: GeneCalling confirmation of gene expression changes in MG-63 cells. The settings on record: confirmed by GeneCalling; for Collagen gene expression change: up with OPG, down with thrombopoietin.
For another assay, the system named is TF-1, Erythroleukemia. Briefly: GeneCalling confirmation of gene expression changes in TF-1 cells. The settings on record: confirmed by GeneCalling.
A further assay concerns U-87MG, Astrocytoma. Nature of the assay: GeneCalling confirmation of gene expression changes in U-87MG cells. The conditions noted are these: confirmed by GeneCalling.

With “thrombopoietin: known protein used to treat the indicated cell lines in GeneCalling confirmation”, the “Collagen gene expression change” value in the assay with MG-63, Osteosarcoma is recorded as “Collagen**”.

As to “IL-6: known protein used to treat the indicated cell lines in GeneCalling confirmation”, in the assay with TF-1, Erythroleukemia, the “ICAM-1 gene expression change” value is “ICAM-1****”.

B1: OPG: known protein used to treat the indicated cell lines in GeneCalling confirmation (protein, UniProt O00300 22-401, looked up)
Tumor necrosis factor …: ETFPPKYLHYDEETSHQLLCDKCPPGTYLKQHCTAKWKTVCAPCPDHYYTDSWHTSDECLYCSPVCKELQYVKQECNRTHNRVCECKEGRYLEIEFCLKHRSCPPGFGVVQAGTPERNTVCKRCPDGFFSNETSSKAPCRKHTNCSVFGLLLTQKGNATHDNICSGNSESTQKCGIDVTLCEEAFFRFAVPTKFTPNWLSVLVDNLPGTKVNAESVERIKRQHSSQEQTFQLLKLWKHQNKDQDIVKKIIQDIDLCENSVQRHIGHANLTFEQLRSLMESLPGKKVGAEDIEKTIKACKPSDQILKLLSLWRIKNGDQDTLKGLMHALKHSKTYHFPKTVTQSLKKTIRFLHSFTMYKLYQKLFLEMIGNQVQSVKISCL
With B1, in the assay with MG-63, Osteosarcoma, the “Collagen gene expression change” value is “Collagen**”.

B2: IL-1α: known protein used to treat the indicated cell lines in GeneCalling confirmation (protein, UniProt P01583 113-271, looked up)
Interleukin-1 alpha: SAPFSFLSNVKYNFMRIIKYEFILNDALNQSIIRANDQYLTAAALHNLDEAVKFDMGAYKSSKDDAKITVILRISKTQLYVTAQDEDQPVLLKEMPEIPKTITGSETNLLFFWETHGTKNYFTSVAHPNLFIATKQDYWVCLAGGPPSITDFQILENQA
Take B2: in the assay with MG-63, Osteosarcoma, the “Factor B gene expression change” value is recorded as “Factor B*”, the “IL-8 gene expression change” value is listed as “IL-8*”, the “IRF-1 gene expression change” value is listed as “IRF-1*” and the “LOX gene expression change” value is given as “LOX*”. Further, in the assay on MG-63, Osteosarcoma, the “MxA gene expression change” value is “MxA*” and the “TAP-1 gene expression change” value is reported as “TAP-1*”. Also, in the assay on U-87MG, Astrocytoma, the “IL-8 gene expression change” value was “IL-8*”, the “MCP-1 gene expression change” value was “MCP-1*” and the “Tenascin-c gene expression change” value is recorded as “Tenascin-c*”.

B3: IFNγ: known protein used to treat the indicated cell lines in GeneCalling confirmation (protein, UniProt P01579 24-161, looked up)
Interferon gamma: QDPYVKEAENLKKYFNAGHSDVADNGTLFLGILKNWKEESDRKIMQSQIVSFYFKLFKNFKDDQSIQKSVETIKEDMNVKFFNSNKKKRDDFEKLTNYSVTDLNVQRKAIHELIQVMAELSPAAKTGKRKRSQMLFRG
Consider B3, for which the “IRF-1 gene expression change” value is on record as “IRF-1***” in the assay on U-87MG, Astrocytoma and “IRF-1***” in the assay on TF-1, Erythroleukemia.
